Test results from the supplement of paper PMC10126150.
± gives the standard deviation of the averaged measurements.

Test system: ATP
Assay: switch fluorescence ratio, 500 uM ATP over buffer (Cy3 cluster intensity, sum of 5 cycles each) (fold (ratio)); higher = stronger signal-on switching upon ATP binding; sequences stand for … in TCGTCGGCAGCGTCAGATGTGTATAAGAGACAGTTTTTTTTTTTTTTTTTTTTTTTTT…TC
Conditions: aptamer strand: ATP DNA aptamer (quencher-CACCTGGGGGAGTATTGCGGAGGAAGG + anchor), 100 nM annealed; ATP concentration: 500 uM
Summary of the method: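 Cy3-labelled switching-strand clusters on a modified Illumina MiSeq flow-cell were annealed to 100 nM quencher-labelled ATP aptamer and imaged first in selection buffer, then after 15 min with 500 uM ATP at 22 °C. NaOH stripping and re-annealing separated each of five buffer/ATP cycles, and clusters outside 100-1000 RFU were excluded. The fluorescence ratio sums target-cycle Cy3 intensity over buffer-cycle Cy3 intensity per cluster and averages it per switch-domain sequence.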
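Note: ATP exposure 15 min at 22 °C before imaging.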

| Sequence | switch fluorescence ratio |
| --- | --- |
| AGGTATTAGG | 0.988 ± 0.041 |
| AGGTCAGGCA | 1.002 ± 0.0075 |
| AGGTCCGCGA | 2.62 ± 0.17 |
| AGGTGAAGTT | 1.02 ± 0.062 |
| AGGTGAGATT | 1.02 ± 0.018 |
| AGGTGATTTT | 0.991 ± 0.013 |
| AGGTGCAGCA | 1.06 ± 0.15 |
| AGGTGCAGGC | 0.863 ± 0.082 |
| AGGTGCAGTG | 1.015 ± 0.0042 |
| AGGTGCGGGA | 1.02 ± 0.052 |
| AGGTGGCGTG | 0.944 ± 0.022 |
| AGGTGGCTAG | 1.026 ± 0.0052 |
| AGGTGGGCTG | 0.963 ± 0.024 |
| AGGTGGGGG | 0.979 ± 0.015 |
| AGGTGGGGGA | 0.995 ± 0.031 |
| AGGTGGGGTG | 1.03 ± 0.023 |
| AGGTGTACTG | 1.03 ± 0.058 |
| AGGTGTAGTG | 0.987 ± 0.016 |
| AGGTGTCGCG | 1.01 ± 0.02 |
| AGGTGTGCGC | 1.01 ± 0.07 |
| AGGTGTTCTA | 1.02 ± 0.021 |
| AGGTGTTGT | 1.03 ± 0.053 |
| AGGTGTTTTT | 1.03 ± 0.032 |
| AGGTTAAAA | 1.03 ± 0.075 |
| AGGTTACCGC | 1.03 ± 0.048 |

| Sequence | switch fluorescence ratio |
| --- | --- |
| AGGTTATAGG | 1.05 ± 0.091 |
| AGGTTATGGT | 0.992 ± 0.052 |
| AGGTTATTTG | 0.978 ± 0.015 |
| AGGTTCAGGC | 0.9821 ± 0.0086 |
| AGGTTCATTA | 1.01 ± 0.023 |
| AGGTTCCACG | 0.996 ± 0.03 |
| AGGTTCGTTC | 0.97 ± 0.039 |
| AGGTTCTGGG | 1.01 ± 0.03 |
| AGGTTCTTA | 0.994 ± 0.06 |
| AGGTTGAACG | 0.985 ± 0.046 |
| AGGTTGCATG | 1.02 ± 0.079 |
| AGGTTGGGTA | 0.979 ± 0.015 |
| AGGTTGGTGG | 1 ± 0.016 |
| AGGTTGTATC | 1.01 ± 0.028 |
| AGGTTGTTAA | 1.0085 ± 0.0005 |
| AGGTTTATCA | 0.991 ± 0.028 |
| AGGTTTATGC | 0.977 ± 0.066 |
| AGGTTTCGAG | 0.997 ± 0.023 |
| AGGTTTTGCA | 0.991 ± 0.019 |
| AGGTTTTGGT | 1 ± 0.055 |
| AGTAAAAAAG | 1.042 ± 0.0073 |
| AGTAAAATGT | 1 ± 0.021 |
| AGTAAAGGAA | 0.999 ± 0.014 |
| AGTAAAGTTG | 0.991 ± 0.024 |
| AGTAACAGCC | 1.001 ± 0.0066 |

| Sequence | switch fluorescence ratio |
| --- | --- |
| AGTAACTTGA | 1 ± 0.013 |
| AGTAAGGCTA | 1 ± 0.051 |
| AGTAAGGGCT | 0.99 ± 0.015 |
| AGTAAGGGTA | 1.0185 ± 0.00081 |
| AGTAAGTTTT | 1.032 ± 0.0011 |
| AGTAATAAGT | 0.979 ± 0.047 |
| AGTAATCGCT | 0.985 ± 0.01 |
| AGTAATTGGT | 0.9954 ± 0.0088 |
| AGTACGAGGA | 1.04 ± 0.035 |
| AGTACGGAAG | 1.02 ± 0.024 |
| AGTACTGTGG | 0.996 ± 0.032 |
| AGTAGAATCA | 1.01 ± 0.026 |
| AGTAGAATCG | 0.992 ± 0.033 |
| AGTAGATTAA | 0.986 ± 0.011 |
| AGTAGGGGTT | 0.979 ± 0.02 |
| AGTAGGTCTG | 1.04 ± 0.046 |
| AGTAGGTTAG | 0.989 ± 0.04 |
| AGTATAACGA | 1.06 ± 0.016 |
| AGTATAGGGT | 0.972 ± 0.029 |
| AGTATAGTAG | 0.983 ± 0.019 |
| AGTATATCGC | 1 ± 0.022 |
| AGTATATCTG | 0.974 ± 0.02 |
| AGTATCGAGC | 1.02 ± 0.049 |
| AGTATCTCTT | 1.0161 ± 4.4e-05 |
| AGTATGGGGT | 0.996 ± 0.018 |

| Sequence | switch fluorescence ratio |
| --- | --- |
| AGTATGTAAA | 1.02 ± 0.017 |
| AGTATGTATA | 0.9957 ± 0.0083 |
| AGTATGTTTC | 1 ± 0.025 |
| AGTATTCGGG | 0.976 ± 0.058 |
| AGTATTCTAT | 1.004 ± 0.0034 |
| AGTATTGTCT | 1.039 ± 0.003 |
| AGTATTGTTT | 1.01 ± 0.02 |
| AGTCAAAAAA | 1.17 ± 0.3 |
| AGTCAGGGTC | 0.99 ± 0.032 |
| AGTCAGTGAC | 1.009 ± 0.0026 |
| AGTCATATAG | 1.062 ± 0.0056 |
| AGTCATTAGG | 1.03 ± 0.041 |
| AGTCATTCTC | 0.9841 ± 0.003 |
| AGTCATTGTT | 0.989 ± 0.012 |
| AGTCCAAGGC | 1.02 ± 0.065 |
| AGTCCCCCTA | 1.08 ± 0.069 |
| AGTCCGGGAT | 1.07 ± 0.044 |
| AGTCCGTGCT | 1.05 ± 0.044 |
| AGTCCTTAAG | 1 ± 0.025 |
| AGTCGAAAGC | 1.01 ± 0.059 |
| AGTCGACTTT | 0.997 ± 0.011 |
| AGTCGCCTTT | 1.02 ± 0.056 |
| AGTCGGCGGA | 0.998 ± 0.014 |
| AGTCGGGAGG | 0.945 ± 0.062 |
| AGTCGGTAGG | 1.02 ± 0.012 |
